From patent US11052132B2, “Methods and compositions for treating cystic fibrosis” (PHASEBIO PHARMACEUTICALS, INC., priority 2014, dated 2021)

B1: PB1046: long lasting, stable VIP therapeutic which includes ELP sequences; VIP-ELP fusion, SEQ ID NO: 15 (protein)
chain: MHSDAVFTDNYTRLRKQMAVKKYLNSILNVPGVGVPGVGVPGGGVPGAGVPGVGVPGVGVPGVGVPGGGVPGAGVPGGGVPGVGVPGVGVPGGGVPGAGVPGVGVPGVGVPGVGVPGGGVPGAGVPGGGVPGVGVPGVGVPGGGVPGAGVPGVGVPGVGVPGVGVPGGGVPGAGVPGGGVPGVGVPGVGVPGGGVPGAGVPGVGVPGVGVPGVGVPGGGVPGAGVPGGGVPGVGVPGVGVPGGGVPGAGVPGVGVPGVGVPGVGVPGGGVPGAGVPGGGVPGVGVPGVGVPGGGVPGAGVPGVGVPGVGVPGVGVPGGGVPGAGVPGGGVPGVGVPGVGVPGGGVPGAGVPGVGVPGVGVPGVGVPGGGVPGAGVPGGGVPGVGVPGVGVPGGGVPGAGVPGVGVPGVGVPGVGVPGGGVPGAGVPGGGVPGVGVPGVGVPGGGVPGAGVPGVGVPGVGVPGVGVPGGGVPGAGVPGGGVPGVGVPGVGVPGGGVPGAGVPGVGVPGVGVPGVGVPGGGVPGAGVPGGGVPGVGVPGVGVPGGGVPGAGVPGVGVPGVGVPGVGVPGGGVPGAGVPGGGVPGVGVPGVGVPGGGVPGAGVPGVGVPGVGVPGVGVPGGGVPGAGVPGGGVPGWP
modifications: M-VIP ELP1-120
B2: PB1120: long lasting, stable VIP therapeutic which includes ELP sequences; VIP-ELP fusion, SEQ ID NO: 20 (protein)
chain: HSDAVFTDNYTRLRKQMAVKKYLNSILNVPGVGVPGVGVPGGGVPGAGVPGVGVPGVGVPGVGVPGGGVPGAGVPGGGVPGVGVPGVGVPGGGVPGAGVPGVGVPGVGVPGVGVPGGGVPGAGVPGGGVPGVGVPGVGVPGGGVPGAGVPGVGVPGVGVPGVGVPGGGVPGAGVPGGGVPGVGVPGVGVPGGGVPGAGVPGVGVPGVGVPGVGVPGGGVPGAGVPGGGVPGVGVPGVGVPGGGVPGAGVPGVGVPGVGVPGVGVPGGGVPGAGVPGGGVPGVGVPGVGVPGGGVPGAGVPGVGVPGVGVPGVGVPGGGVPGAGVPGGGVPGVGVPGVGVPGGGVPGAGVPGVGVPGVGVPGVGVPGGGVPGAGVPGGGVPGVGVPGVGVPGGGVPGAGVPGVGVPGVGVPGVGVPGGGVPGAGVPGGGVPGVGVPGVGVPGGGVPGAGVPGVGVPGVGVPGVGVPGGGVPGAGVPGGGVPGVGVPGVGVPGGGVPGAGVPGVGVPGVGVPGVGVPGGGVPGAGVPGGGVPGVGVPGVGVPGGGVPGAGVPGVGVPGVGVPGVGVPGGGVPGAGVPGGGVPGVGVPGVGVPGGGVPGAGVPGVGVPGVGVPGVGVPGGGVPGAGVPGGGVPGWP
modifications: VIP ELP1-120

Legend:
[1] = target: T1, F508del-CFTR (Homo sapiens, UniProt P13569, DEL508-508); assay: Iodide efflux assay on JME/CF15 cells (rescue of F508del-CFTR function); assay type: cell-based; settings: for effect on iodide efflux, alone / plateau concentration (iodide efflux rate) / EC50: JME/CF15 cells at 37° C.; for effect on iodide efflux, alone: acute treatment with 1 μM VX770 alone (FIG. 6A); for effect on iodide efflux in combination with VX-770: 350 nM PB1046 18 hours or 140 nM PB1120 24 hours, plus acute 1 μM VX-770 (FIG. 6B, C); for correct and/or potentiate the activity of F508del-CFTR (iodide efflux) compared with VX-809 and VX-661: 37° C., 900 nM VIP 24 h, 1 μM PB1120 24 h, 1.2 μM PB1046 18 h, versus 1 μM VX809 24 h, 3 μM VX661 24 h (FIG. 5); for plateau concentration (iodide efflux rate) / EC50: pre-incubated 2 hours at 30-3,500 nM, then cAMP activator cocktail, n=3-5; for EC50: read-out: EC50 (iodide efflux rate)
T1 construct: A human nasal epithelial cell line JME/CF15, derived from a Cystic Fibrosis patient homozygous for the F508del mutation; endogenous in cells; host or cells: JME/CF15 human nasal epithelial cell line (CF patient, F508del homozygous)
T1 sequence (P13569 with tags, fused parts or gaps DEL508-508): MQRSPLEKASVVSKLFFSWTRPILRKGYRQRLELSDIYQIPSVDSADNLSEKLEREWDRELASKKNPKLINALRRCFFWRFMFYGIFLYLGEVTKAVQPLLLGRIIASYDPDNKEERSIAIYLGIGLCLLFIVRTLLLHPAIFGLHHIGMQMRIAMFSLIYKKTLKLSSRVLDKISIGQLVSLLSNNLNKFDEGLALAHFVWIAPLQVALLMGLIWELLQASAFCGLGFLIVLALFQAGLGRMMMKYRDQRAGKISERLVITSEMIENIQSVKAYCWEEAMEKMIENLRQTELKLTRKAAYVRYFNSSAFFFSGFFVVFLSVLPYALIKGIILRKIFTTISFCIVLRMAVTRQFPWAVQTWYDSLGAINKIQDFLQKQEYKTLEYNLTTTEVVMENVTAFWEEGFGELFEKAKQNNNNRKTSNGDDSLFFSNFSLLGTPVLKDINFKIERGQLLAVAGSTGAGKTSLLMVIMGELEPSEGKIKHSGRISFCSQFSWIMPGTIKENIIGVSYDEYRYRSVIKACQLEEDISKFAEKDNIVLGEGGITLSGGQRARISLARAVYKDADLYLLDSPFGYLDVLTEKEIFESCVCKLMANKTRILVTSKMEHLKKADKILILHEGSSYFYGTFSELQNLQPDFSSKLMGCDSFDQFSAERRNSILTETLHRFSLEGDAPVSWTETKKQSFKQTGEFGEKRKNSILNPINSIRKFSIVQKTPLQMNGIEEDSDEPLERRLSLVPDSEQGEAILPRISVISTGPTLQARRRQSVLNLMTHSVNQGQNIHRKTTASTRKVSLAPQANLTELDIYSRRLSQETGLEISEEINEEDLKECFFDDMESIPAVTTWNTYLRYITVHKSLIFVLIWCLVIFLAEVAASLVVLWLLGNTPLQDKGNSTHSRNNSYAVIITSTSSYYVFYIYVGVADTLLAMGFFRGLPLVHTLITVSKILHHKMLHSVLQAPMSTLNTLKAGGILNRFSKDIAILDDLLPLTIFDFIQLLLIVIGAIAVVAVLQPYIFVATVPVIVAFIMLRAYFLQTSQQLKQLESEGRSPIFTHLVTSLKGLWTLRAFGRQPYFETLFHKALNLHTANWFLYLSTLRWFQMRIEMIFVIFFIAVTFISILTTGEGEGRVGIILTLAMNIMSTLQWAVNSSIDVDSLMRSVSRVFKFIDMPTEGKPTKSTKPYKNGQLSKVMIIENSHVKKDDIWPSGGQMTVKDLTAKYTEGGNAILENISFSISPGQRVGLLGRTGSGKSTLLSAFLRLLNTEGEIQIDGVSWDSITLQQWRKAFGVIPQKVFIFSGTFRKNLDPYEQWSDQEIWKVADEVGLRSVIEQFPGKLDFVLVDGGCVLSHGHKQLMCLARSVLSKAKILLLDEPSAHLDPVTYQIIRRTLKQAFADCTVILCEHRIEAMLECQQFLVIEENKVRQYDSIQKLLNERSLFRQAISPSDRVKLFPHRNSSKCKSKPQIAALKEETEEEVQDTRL
Procedure: A human nasal epithelial cell line JME/CF15, derived from a Cystic Fibrosis patient homozygous for the F508del mutation (Jefferson (1990)) was used to evaluate the effect of VIP compounds on CFTR protein function. Cells were cultured at 37° C. with at 5% CO2— 95% humidity in DMEM-F12 with 10% FBS and supplemented with transferrin (5 μg/ml), triiodothyronine (2 nM), insulin (5 μg/ml), hydrocortisone (1.1 μM), EGF (1.64 nM), epinephrine (5.5 μM), and adenine (18 μM). Cells were maintained at 37° C. and incubated with […] VIP, 1.2 μM PB1046 (SEQ ID NO: 15), or 1 μM PB1120 (SEQ ID NO: 20) for 18 or 24 hours before the assaying for iodide efflux. For comparison, cells were incubated with the CFTR correctors VX-809 (lumacaftor) or VX-661.
To evaluate the effect of test compounds on CFTR protein function, the activity of the CFTR chloride channel was determined by studying the efflux of iodide ions using an iodide sensitive electrode. Cells were incubated with NaI loading buffer (136 mM NaI, 3 mM KNO3, 2 mM Ca(NO3), 11 mM glucose, 20 mM HEPES, pH 7.4) for 1 hour at room temperature. Extracellular NaI solution was then removed and replaced with efflux buffer in which NaI was replaced with NaNO3. Samples were taken and replaced at 1 minute intervals. The first 3 samples taken before addition of the CFTR activation cocktail (time 0-2 min) were used to establish a stable baseline of ion efflux. CFTR activation cocktail (150 μM cpt-cAMP+1 mM IBMX+10 μM forskolin) was included in the efflux buffer from time 3 minutes. NaI concentration was then measured using an iodide sensitive electrode moved over each sample by a computerised autosampler and the NaI efflux rate constant k (min^−1) was calculated. Iodide efflux peaks (maximum efflux rate during stimulation—basal level) were compared.
Iodide efflux rates were measured on JME/CF15 cells maintained at 37° C. and pre-incubated with VIP, PB1046, or PB1120 at 30-3,500 nM for 2 hours. […] Rescued F508del-CFTR was stimulated by a cAMP activator cocktail added to the efflux buffer. […] CFTRinh172 (20 μM) was included in the incubation, confirming that the iodide efflux was mediated by CFTR.
To study the effects of administration of PB1120 or PB1046 together with CFTR potentiators or CFTR correctors, iodide efflux assays were performed as described in Example 1.

[2] = tested on: F508del-CFTR; assay: Immunoblotting / immunostaining of F508del-CFTR maturation and membrane expression in JME/CF15 cells; assay type: cell-based, human; settings: JME/CF15 cells at 37° C., incubated with compound for 24 hours (FIG. 4)
Procedure: JME/CF15 cells were immunostained for CFTR (A).
Immunoblotting was performed to visualize the […] of the F508del-CFTR in the epithelial cells treated with VIP, PB1120, or PB1046.

Molecule | effect on iodide efflux, alone [1] | effect on iodide efflux, alone ([1]; listed as VX770) | iodide efflux activity rescued by VIP therapeutics when the CFTR inhibitor is included ([1]; CFTRinh172 20 μM, 30 minutes before and during the efflux experiments (FIG. 3)) | F508del-CFTR maturation and membrane expression [2] | effect on iodide efflux in combination with VX-770 [1] | correct and/or potentiate the activity of F508del-CFTR (iodide efflux) compared with VX-809 and VX-661 [1] | plateau concentration (iodide efflux rate) [1] [nM] | EC50 [1] [nM] | effect on iodide efflux in combination with VX-809 ([1]; 1 μM PB1120 and 1 μM VX-809 for 24 hours (FIG. 7))
CC(C)(C)c1cc(C(C)(C)C)c(NC(=O)c2c[nH]c3ccccc3c2=O)cc1O [VX-770, ivacaftor, reference compound] | no effect | did not produce any significant stimulation |  |  |  |  |  |  | 
O=C(O)c1ccc(/C=C2\SC(=S)N(c3cccc(C(F)(F)F)c3)C2=O)cc1 [CFTRinh172, reference compound] |  |  | significantly reduced |  |  |  |  |  | 
B1 |  |  |  | corrected | synergistic effect | equivalent or greater extent than VX-809 and VX-661 | 1200 | 355 | 
B2 |  |  |  | corrected | synergistic effect | equivalent or greater extent than VX-809 and VX-661 | 1000 | 140 | synergism
